Assay results: patent US20240294945A1

How the values were obtained:
Assay in all cases: cell-based or functional assay
[1] = target: TALE-free DddAtox half G1333-C (Burkholderia cenocepacia) (UniProt P0DUH5)
[2] = target: right-TALE:G1333-C, mtND1-targeted DdCBE subunit (Burkholderia cenocepacia)
[3] = target: TALE-free DddAtox half G1397-N (Burkholderia cenocepacia) (UniProt P0DUH5)
[4] = target: TALE-free DddAtox half G1397-C (Burkholderia cenocepacia)
[5] = target: right-TALE:G1397C (the C-terminal G1397 DddAtox half fused to the C-terminus of the right-TALE array (Burkholderia cenocepacia))
[6] = target: TALE-free DddAtox half G1333-N (Burkholderia cenocepacia) (UniProt P0DUH5)

left-TALE:G1333-N, mtND1-targeted DdCBE subunit
base editing efficiency at position C8 of the mtND1 target, HEK293T [1]: 32.7%
base editing efficiency at position C8 of the mtND1 target, HEK293T [2]: 56.1%

right-TALE:G1397C (the C-terminal G1397 DddAtox half fused to the C-terminus of the right-TALE array
base editing efficiency at the mtND1 target, HEK293T [3]: 8.1%

left-TALE:G1397N (the N-terminal G1397 DddAtox half fused to the C-terminus of the left-TALE array),
base editing efficiency at the mtND1 target, HEK293T [4]: 31%
cytosine-to-thymine editing efficiency at C11 of the mtND1 target, HEK293T [5]: 60.7%

right-TALE:G1333-C, mtND1-targeted DdCBE subunit
base editing efficiency at position C8 of the mtND1 target, HEK293T [6]: 18.1%
